Experimental data as given in PMC8188256 (Data in Brief, 2021).
Where “and” joins values, the source holds several entries; their conditions need not be identical. Equal values may be shown once. Each block holds one compound with its values, some of them ahead of it.

How the values were obtained:
DnaKLS (E. coli) = DnaKLS (E. coli) (UniProt P0A6Y8); test: SPR
DnaK = DnaK (Escherichia coli, UniProt P0A6Y8); test: biochemical
[1] = target: PfHsp70–1LS (Plasmodium falciparum); test: SPR
[2] = target: PfHsp70–1 (Plasmodium falciparum); test: SPR
[3] = target: PfHsp70-zLS (Plasmodium falciparum); test: SPR
[4] = target: Plasmodium falciparum Hsp110 (PfHsp70-z) (Plasmodium falciparum); test: SPR

Sequence of DnaJ (P08622 whole entry): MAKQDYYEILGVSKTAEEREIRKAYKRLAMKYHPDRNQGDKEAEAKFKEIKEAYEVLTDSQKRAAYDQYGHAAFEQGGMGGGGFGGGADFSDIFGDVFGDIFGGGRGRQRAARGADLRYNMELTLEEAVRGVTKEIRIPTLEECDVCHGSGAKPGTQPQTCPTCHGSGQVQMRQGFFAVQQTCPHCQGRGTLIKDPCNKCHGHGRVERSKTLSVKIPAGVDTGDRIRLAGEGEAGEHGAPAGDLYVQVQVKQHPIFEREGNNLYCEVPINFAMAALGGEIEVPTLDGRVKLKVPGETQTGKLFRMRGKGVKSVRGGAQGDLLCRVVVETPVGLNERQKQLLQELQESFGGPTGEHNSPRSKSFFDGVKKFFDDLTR
Sequence of DnaK (P0A6Y8 2-638): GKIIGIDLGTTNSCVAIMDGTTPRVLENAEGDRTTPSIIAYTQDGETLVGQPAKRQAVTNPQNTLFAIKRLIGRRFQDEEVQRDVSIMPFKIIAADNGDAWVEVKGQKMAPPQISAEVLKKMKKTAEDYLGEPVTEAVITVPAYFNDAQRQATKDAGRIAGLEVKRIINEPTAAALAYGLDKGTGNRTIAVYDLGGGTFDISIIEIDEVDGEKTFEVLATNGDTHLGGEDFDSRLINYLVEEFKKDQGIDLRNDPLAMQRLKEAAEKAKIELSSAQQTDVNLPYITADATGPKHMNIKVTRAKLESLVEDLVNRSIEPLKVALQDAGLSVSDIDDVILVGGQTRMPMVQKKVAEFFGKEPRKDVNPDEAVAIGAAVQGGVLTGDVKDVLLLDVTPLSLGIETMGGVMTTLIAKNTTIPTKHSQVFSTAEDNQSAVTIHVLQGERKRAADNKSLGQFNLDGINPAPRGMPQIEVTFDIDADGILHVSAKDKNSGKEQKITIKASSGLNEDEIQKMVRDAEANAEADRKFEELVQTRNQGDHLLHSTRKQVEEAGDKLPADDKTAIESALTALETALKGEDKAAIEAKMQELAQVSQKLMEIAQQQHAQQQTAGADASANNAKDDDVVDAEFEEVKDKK

- koff (DnaKLS (E. coli)): 0.0676 s⁻¹ and 0.0732 s⁻¹ and 0.0522 s⁻¹
Compound: DnaJ (from UniProt P08622 1-376) (natural protein)

- Kd (DnaK): 398 nM
Compound: Nc1ncnc2c1ncn2[C@@H]1O[C@H](COP(=O)(O)OP(=O)(O)OP(=O)(O)O)[C@@H](O)[C@H]1O [ATP]

Compound: PfHsp40 (natural protein)
- kon [1]: 6040 M⁻¹ s⁻¹ and 2200 M⁻¹ s⁻¹ and 6140 M⁻¹ s⁻¹
- koff [2]: 0.0815 s⁻¹ and 0.0866 s⁻¹ and 0.0361 s⁻¹
- kon [3]: 9020 M⁻¹ s⁻¹ and 6170 M⁻¹ s⁻¹ and 7250 M⁻¹ s⁻¹
- koff [4]: 0.0713 s⁻¹ and 0.0396 s⁻¹ and 0.0369 s⁻¹
